Reference: patent US20240116985A1 (published 2024)
Blank lines part the entries; values can stand above or below the binder they belong to. Starred links: 1 amine or outer side, 2 acyl side, 3 side chain; linkers in the order of their positions; H or OH if unused. Positions of bridges follow the written chain, without caps; N, C: chain ends. Non-standard residues stand in square brackets, D forms with d. Primed or numbered codes have the meaning given here. PyrS2″ = (S)-3-amino-1-((pent-4-en-1-yloxy)carbonyl)pyrrolidine-3-carboxylic acid (stapling residue), C=CCCCOC(=O)N1CC[C@@](N[*:1])(C(=O)[*:2])C1; B5(16) = 2-amino-2-(pent-4-en-1-yl)hept-6-enoic acid = 2,2-bis(4-pentenyl)glycine (stitching residue), C=CCCCC(CCCC=C)(N[*:1])C(=O)[*:2]; B5(23) = 2-amino-2-(pent-4-en-1-yl)hept-6-enoic acid (2,2-bis(4-pentenyl)glycine), stitching residue, C=CCCCC(CCCC=C)(N[*:1])C(=O)[*:2]; B5(4) = 2,2-bis(4-pentenyl)glycine = 2-amino-2-(pent-4-en-1-yl)hept-6-enoic acid (stitching residue), C=CCCCC(CCCC=C)(N[*:1])C(=O)[*:2]; B5(5) = 2,2-bis(4-pentenyl)glycine, 2-amino-2-(pent-4-en-1-yl)hept-6-enoic acid (stitching residue), C=CCCCC(CCCC=C)(N[*:1])C(=O)[*:2]; B5(6) = 2-amino-2-(pent-4-en-1-yl)hept-6-enoic acid (bis(4-pentenyl)glycine), stitching residue, C=CCCCC(CCCC=C)(N[*:1])C(=O)[*:2]; TfeGA = (S)-2-amino-3-((carboxymethyl)(2,2,2-trifluoroethyl)amino)propanoic acid, O=C([C@H](CN(CC(=O)[*:3])CC(F)(F)F)N[*:1])[*:2]; PyrS2 = (S)-3-amino-1-((pent-4-en-1-yloxy)carbonyl)pyrrolidine-3-carboxylic acid, C=CCCCOC(=O)N1CC[C@@](N[*:1])(C(=O)[*:2])C1; B5(3) = 2,2-bis(4-pentenyl)glycine (stitching residue), C=CCCCC(CCCC=C)(N[*:1])C(=O)[*:2]; Bta = N[C@@H](Cc1csc2ccccc12)C(=O)O; αAllylPro = C=CC[C@@]1(C(=O)O)CCCN1; tBuAla = CC(C)(C)C[C@H](N)C(=O)O; 3Thi = N[C@@H](Cc1ccsc1)C(=O)O; Cha = N[C@@H](CC1CCCCC1)C(=O)O; S8 = C=CCCCCCC[C@](C)(N)C(=O)O; Thr(ol) = C[C@@H](O)[C@H](N)CO

What was measured:
[1] = biological target: T1, B-cat-Halo (NanoBRET construct expressed in HEK293 cells) (UniProt P35222 1-781); experiment: cell-based or functional assay
T1 sequence (looked up): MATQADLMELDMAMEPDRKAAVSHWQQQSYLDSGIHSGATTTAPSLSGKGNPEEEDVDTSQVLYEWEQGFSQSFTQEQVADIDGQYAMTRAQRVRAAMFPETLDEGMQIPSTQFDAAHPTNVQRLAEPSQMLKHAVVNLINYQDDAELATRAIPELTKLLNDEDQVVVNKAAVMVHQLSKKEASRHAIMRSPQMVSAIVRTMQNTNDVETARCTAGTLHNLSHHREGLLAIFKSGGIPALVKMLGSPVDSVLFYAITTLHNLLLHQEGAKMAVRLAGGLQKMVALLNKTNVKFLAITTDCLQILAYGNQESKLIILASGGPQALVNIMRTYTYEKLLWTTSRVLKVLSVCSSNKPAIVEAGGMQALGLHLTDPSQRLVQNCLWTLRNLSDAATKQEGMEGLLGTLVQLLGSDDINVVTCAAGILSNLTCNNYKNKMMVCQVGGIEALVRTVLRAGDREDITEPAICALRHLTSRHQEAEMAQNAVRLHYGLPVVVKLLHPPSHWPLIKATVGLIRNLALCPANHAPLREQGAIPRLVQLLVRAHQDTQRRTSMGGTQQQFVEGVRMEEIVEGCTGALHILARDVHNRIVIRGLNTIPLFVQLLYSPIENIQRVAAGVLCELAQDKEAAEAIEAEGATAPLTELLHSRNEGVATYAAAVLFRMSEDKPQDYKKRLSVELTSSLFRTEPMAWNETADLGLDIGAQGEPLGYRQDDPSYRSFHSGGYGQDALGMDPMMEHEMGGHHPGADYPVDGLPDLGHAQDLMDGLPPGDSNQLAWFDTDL

[2] = biological target: T2, beta-catenin in DLD1 TCF/LEF luciferase reporter cells (UniProt P35222 1-781); experiment: cell-based or functional assay
T2 sequence (looked up): T1 sequence (looked up)

[3] = biological target: T3, full-length beta-Catenin (Uniprot ID P35222) (Homo sapiens (Human), UniProt P35222 1-781); experiment: FP competition: full-length beta-catenin 10 nM + 5FAM-TCF4(10-53) 10 nM
T3 construct: also called bCat; B-Catenin
T3 sequence: T1 sequence (looked up)
Protocol: (§1) The plate was incubated protected from light for 60 minutes at 20° C. prior to read. Reads were performed on a CLARIOstar plate reader (BMG Labtech) in duplicate, and data were fitted to a 1:1 binding model with hill slope using an in-house script. All provided concentrations are final concentrations.

B-cat-Halo [4] = biological target: T4, B-cat-Halo (UniProt P35222 1-781); experiment: cell-based or functional assay
T4 sequence (looked up): T1 sequence (looked up)

[5] = biological target: T5, full-length beta-Catenin (Uniprot ID P35222) (Homo sapiens (Human), UniProt P35222 1-781); experiment: fluorescence polarization competition; displacement of 5FAM-TCF4(10-53) from full-length beta-catenin
T5 construct: also called bCat; B-Catenin
T5 sequence: T1 sequence (looked up)
Summary of the method: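 Readings followed a light-protected 60-minute incubation at 20° C. Each read was done in duplicate. Curves were fit with a 1:1 binding model including hill slope, and stated concentrations are final.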

B-cat-Halo [6] = biological target: T6, B-cat-Halo (UniProt P35222 1-781); experiment: cell-based or functional assay; remark: listed apart in the source
T6 sequence (looked up): T1 sequence (looked up)

[7] = biological target: T7, beta-catenin (in DLD1 TCF/LEF luciferase reporter cells) (UniProt P35222 1-781); experiment: cell-based or functional assay
T7 sequence (looked up): T1 sequence (looked up)

[8] = biological target: T8, beta-catenin in DLD1 TCF/LEF luciferase reporter cells (UniProt P35222 1-781); experiment: cell-based or functional assay; remark: listed apart in the source
T8 sequence (looked up): T1 sequence (looked up)

[9] = biological target: T9, B-cat-Halo (beta-catenin HaloTag NanoBRET construct expressed in HEK293 cells) (UniProt P35222 1-781, HaloTag labelled with HaloTag NanoBRET 618 Ligand); experiment: cell-based or functional assay
T9 sequence (looked up): T1 sequence (looked up)

[10] = biological target: T10, full-length beta-Catenin (Uniprot ID P35222) (Homo sapiens (Human), UniProt P35222 2-781); experiment: fluorescence polarization competition; 10 nM full-length beta-catenin + 10 nM 5FAM-TCF4(10-53) probe, peptide titrated
T10 construct: also called bCat; B-Catenin
T10 sequence: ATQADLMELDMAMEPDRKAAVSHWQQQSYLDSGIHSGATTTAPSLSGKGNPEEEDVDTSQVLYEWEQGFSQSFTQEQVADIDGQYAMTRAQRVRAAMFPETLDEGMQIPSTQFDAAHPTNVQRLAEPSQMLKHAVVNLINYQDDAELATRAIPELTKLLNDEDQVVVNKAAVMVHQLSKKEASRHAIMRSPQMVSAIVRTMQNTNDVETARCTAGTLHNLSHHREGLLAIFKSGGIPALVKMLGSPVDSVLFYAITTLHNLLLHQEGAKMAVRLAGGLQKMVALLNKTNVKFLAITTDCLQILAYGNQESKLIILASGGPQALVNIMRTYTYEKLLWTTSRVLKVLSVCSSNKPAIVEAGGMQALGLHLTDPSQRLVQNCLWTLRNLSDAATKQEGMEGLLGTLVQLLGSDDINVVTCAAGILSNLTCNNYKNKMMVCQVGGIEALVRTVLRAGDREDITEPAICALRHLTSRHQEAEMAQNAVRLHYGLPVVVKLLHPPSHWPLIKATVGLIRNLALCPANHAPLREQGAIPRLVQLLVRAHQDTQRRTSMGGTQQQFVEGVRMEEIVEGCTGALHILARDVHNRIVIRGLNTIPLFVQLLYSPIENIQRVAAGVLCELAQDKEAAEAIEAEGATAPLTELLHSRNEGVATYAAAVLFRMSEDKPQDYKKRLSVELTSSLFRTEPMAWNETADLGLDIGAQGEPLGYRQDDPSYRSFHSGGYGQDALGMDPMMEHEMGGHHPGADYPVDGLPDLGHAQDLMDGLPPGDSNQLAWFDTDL
Protocol: as §1

[11] = biological target: T11, B-cat-Halo (beta-catenin HaloTag NanoBRET construct expressed in HEK293 cells) (UniProt P35222 1-781); experiment: cell-based or functional assay
T11 sequence (looked up): T1 sequence (looked up)

[12] = biological target: T12, B-cat-Halo (beta-catenin HaloTag fusion expressed in HEK293 cells) (UniProt P35222 1-781); experiment: cell-based or functional assay
T12 sequence (looked up): T1 sequence (looked up)

B-cat-Halo [13] = biological target: T13, B-cat-Halo (UniProt P35222 1-781); experiment: cell-based or functional assay; remark: listed apart in the source
T13 sequence (looked up): T1 sequence (looked up)

[14] = biological target: T14, full-length beta-Catenin (Uniprot ID P35222) (Homo sapiens (Human), UniProt P35222 2-781); experiment: AlphaScreen competition; peptide titrated against full-length beta-catenin + biotin-TCF4(10-53)
T14 construct: The assay protocols say only 'full-length'; No tag is stated, although the AlphaScreen kit is a Histidine (Nickel Chelate) kit; also called B-Catenin; bCat
T14 sequence: T10 sequence
Protocol: as §1, with “Equal volume of the titrated peptide was added to the” for “The”, “and” for “was”, “incubated for 15 minutes at 20° C. Then 4 uL of donor and 4 uL acceptor beads at 10 ug/mL were added to the plate, for a 16 uL reaction pool and” for “incubated”

[15] = biological target: T14, full-length beta-Catenin (Uniprot ID …); experiment: fluorescence polarization competition; peptide titrated against full-length beta-catenin + 5FAM-TCF4(10-53) probe
Protocol: as §1

B1: I-505 (peptide)
peptide: Ac-[αAllylPro]DL[B5(6)]DEAAFQ[S8]F[Bta]Q-NH2
modifications: staple 1-4, 4-11
notes: Stapled peptide composition
NanoBRET Abs IC50 [1]: 4.9 µM
DLD1 4% Abs IC50 [2]: 9.4 µM
IC50 [3]: 0.023 µM

B5: I-407 (peptide)
peptide: Ac-[αAllylPro]DI[B5(23)]DEAAFQ[S8]F[Bta]Q-NH2
modifications: staple 1-4, 4-11
notes: Stapled (stitched) peptide
NanoBRET % inh @ 10 uM [9]: 55.1%
EC50 [10]: 0.03 µM

B8: I-357 (peptide)
peptide: XDAXDDAAFVXFAQ
modifications: not fully specified; N-terminal Ac; C-terminal NH2; PL3 at 1, B5 at 4, S8 at 11 (stapled 1-4 and 4-11)
notes: Stapled peptide composition; Earlier-eluting isomer composition; also called Ac-PL3-Asp-Ala-B5-Asp-Asp-Ala-Ala-Phe-Val-S8-Phe-Ala-Gln-NH2
NanoBRET % inh @ 10 uM (B-cat-Halo [13]): -5.3%
EC50 [14]: 10 µM
EC50 [15]: 5 µM

Other lines, results leading:

NanoBRET % inh @ 10 uM (B-cat-Halo [4]): 8.9%
EC50 [5]: 0.037 µM
B2: I-567 (peptide)
peptide: XDVXDDAAFNXFXQ
modifications: not fully specified; Ac-PL3-Asp-Val-B5-Asp-Asp-Ala-Ala-Phe-Asn-S8-Phe-BztA-Gln-NH2; N-terminal acetyl, C-terminal amide; non-natural: PL3(1), B5(4), S8(11), BztA(13); staples PL3(1)-B5(4) and B5(4)-S8(11)

NanoBRET Abs IC50 (uM); B-cat-Halo / TCF4-Luc in HEK293 cells (B-cat-Halo [6]): 21.4 µM
DLD1 4% Abs IC50 (uM); TCF/LEF luciferase reporter in DLD1 cells [7]: 4 µM
B3: I-1302 (peptide)
peptide: Ac-[αAllylPro]D[tBuAla][B5(4)]DDAAFL[PyrS2][3Thi][Bta][Thr(ol)]
modifications: staple 1-4, 4-11

DLD1 reporter assay Abs IC50 [8]: 3.4 µM
B4: I-807 (peptide)
peptide: Ac-[αAllylPro]D[tBuAla][B5(3)]DDAAFF[PyrS2″][3Thi][Bta]Q-NH2
modifications: staple 1-4, 4-11

NanoBRET Abs IC50 [11]: 11.9 µM
B6: I-703 (peptide)
peptide: Ac-[αAllylPro]D[tBuAla][B5(5)]D[TfeGA]AAFN[S8]F[Bta]Q-NH2
modifications: staple 1-4, 4-11

NanoBRET Abs IC50 [12]: 12 µM
B7: I-620 (peptide)
peptide: Ac-[αAllylPro]D[Cha][B5(16)]DEAAFN[S8]F[Bta]Q-NH2
modifications: staple 1-4, 4-11; also: later-eluting staple isomer composition
